Measurements taken from PMC4192513, “A Novel Protein-Protein Interaction in the RES (REtention and Splicing) Complex*” (The Journal of Biological Chemistry, 2014).

How the values were obtained:
[1] = target: T1, Snu17p (residues 1-113) (S. cerevisiae, UniProt P40565 1-113); assay: NMR titration; 1H,15N correlation (HSQC) spectra of 15N-labelled Snu17p (residues 1-113) on addition of Bud13p peptides; 298 K; 20 mM sodium phosphate pH 6.3, 25 mM NaCl, 2 mM DTT or TCEP; conditions: both partners purified
T1 construct: 15N- or 15N/13C-labelled for NMR; also called Snu17p RRM with N-terminal unstructured extension; source: E. coli BL21(DE3) pLysS, purified (Ni-NTA, TEV cleavage, second Ni-NTA, SEC Superdex 75); not shown: His6, N-terminal, cleaved; GST, N-terminal, cleaved
T1 sequence (looked up): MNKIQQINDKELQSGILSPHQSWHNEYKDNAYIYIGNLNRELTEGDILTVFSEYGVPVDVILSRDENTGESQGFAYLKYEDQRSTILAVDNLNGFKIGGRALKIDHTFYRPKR

[2] = target: T1, Snu17p (residues 1-113); assay: ITC; VP-ITC, 25 °C, NMR buffer (20 mM sodium phosphate pH 6.3, 25 mM NaCl, 2 mM DTT or TCEP); Snu17p (residues 1-113) 30-70 uM in the cell, Bud13p ligands 0.6-1.1 mM in the syringe; one- or two-step binding models; conditions: both partners purified

B1: Bud13p (residues 201-266) (domain or fragment)
chain: not shown
notes: also called 66-mer Bud13p peptide; very long Bud13p peptide; source: E. coli BL21(DE3) pLysS, purified (Ni-NTA, TEV cleavage, second Ni-NTA, SEC Superdex 75); not shown: His6, N-terminal, cleaved; GST, N-terminal, cleaved
- binding result [1]: binds

B2: Bud13p peptide (residues 221-242) (peptide, UniProt P46947 221-242, looked up)
peptide: ENRFAIMPGSRWDGVHRSNGFE
notes: Bud13p, S. cerevisiae, residues 221-242; also called 22-mer Bud13p peptide; shorter Bud13p peptide; source: synthetic peptide, bought: Peptide Specialty Laboratories (Heidelberg), dialyzed
- fold weaker dissociation constant than the longer Bud13p ligands [2]: 50 fold
